Assay results taken from publication doi:10.1101/431288 (bioRxiv, 2018).

Biological target: the molecule itself
Assay: cryo-EM structure

B1: human butyrylcholinesterase (HuBChE), native glycosylated enzyme purified from plasma (enzyme, UniProt P06276 29-602, looked up)
chain: EDDIIIATKNGKVRGMNLTVFGGTVTAFLGIPYAQPPLGRLRFKKPQSLTKWSDIWNATKYANSCCQNIDQSFPGFHGSEMWNPNTDLSEDCLYLNVWIPAPKPKNATVLIWIYGGGFQTGTSSLHVYDGKFLARVERVIVVSMNYRVGALGFLALPGNPEAPGNMGLFDQQLALQWVQKNIAAFGGNPKSVTLFGESAGAASVSLHLLSPGSHSLFTRAILQSGSFNAPWAVTSLYEARNRTLNLAKLTGCSRENETEIIKCLRNKDPQEILLNEAFVVPYGTPLSVNFGPTVDGDFLTDMPDILLELGQFKKTQILVGVNKDEGTAFLVYGAPGFSKDNNSIITRKEFQEGLKIFFPGVSEFGKESILFHYTDWVDDQRPENYREALGDVVGDYNFICPALEFTKKFSEWGNNAFFYYFEHRSSKLPWPEWMGVMHGYEIEFVFGLPLERRDNYTKAEEILSRSIVKRWANFAKYGNPNETQNNSTSWPVFKSTEQKYLTLNTESTRIMTKLRAQQCRFWTSFFPKVLEMTGNIDEAEWEWKAGFHRWNNYMMDWKNQFNDYTSKKESCVGL
notes: also called native BChE tetramer
Question: For B1, which “stoichiometry N” value is on record?
Answer: 4
